Test: yeast display, Sf9 membrane polyspecificity reagent, FACS + sequencing; frameworks hold sequencing errors
In short: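 A synthetic nanobody library was expressed on Saccharomyces cerevisiae BJ5465 by galactose induction for 36–48 hours. The library was stained for 1 hour at 4 °C with 10% biotinylated, detergent-solubilized Sf9 membrane reagent and enriched with streptavidin microbeads before FACS. Low and high (top ~1%) gates were set on anti-HA fluorescence for expression and streptavidin fluorescence for reagent binding, and each polyreactivity label reflects the gate of origin.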

Sequence	polyreactivity (PSR sort gate)
QVQLVESGGGLVQAGGSLRLICAASGRIFFVNAMGWYRQAPGKERELVAAISRSAGRTYYADSVKGRFTISRDNAKNTVYLQMNSLKPEDTAVYYCATEGRTDYNREMEYWGQGTQVTVSS	low polyreactivity
QVQLVESGGGLVQAGGSLRLICAASGRIFGFNAMGWYRQAPGKERELVAAISGRSGRTYYADSVKGRFTISRDNAKITVYLQMNSLKPEDTAVYYCNTVGYRGPSWYDYWGQGTQVTVSS	high polyreactivity
QVQLVESGGGLVQAGGSLRLICAASGRIFGKNDMGWYREAPRKEREFVATIDWSGGSTYYADSVKGRFTISRDNAKNTVDLQMNSLIPEDNAVYYCAARQYWTTDLPFQRYYYWGQGTQVTVSS	low polyreactivity
QVQLVESGGGLVQAGGSLRLICAASGRIFGRYTMGWYRQAPGKETELVAGITYSGGSTYYADSVKGRFTISRDNAKNTVYLQMNSLKPEDTAVYYCAARWRGSGGFDYWGQGTQVTVSS	high polyreactivity
QVQLVESGGGLVQAGGSLRLICAASGRIFGYNAMGWYRQEPGKERELVAAISSGGSTYYADSVKGRFTISRDHAKNTVYLQMNSLKPEDTAVYYCAAEDYPPYTTEYDYWGQGTQVTVSS	low polyreactivity
QVQLVESGGGLVQAGGSLRLICAASGRIFGYYAMGWYRQAPGKERELVAAISRAGSTYYADSVKGRFTISRDNAKNTVSLQMNSLKPEDTAVYYCAAVRSVQRHYTEMYYWGQVTQVTVSS	high polyreactivity
QVQLVESGGGLVQAGGSLRLICAASGRIFGYYAMGWYRQAPGKERELVATITFGGGSSYYADSVKGRFTISRDNAKNTVNLQMNSLKPEDTAVYYCAAVSGYLGIYGDEYSWGQGTQVTVSS	low polyreactivity
QVQLVESGGGLVQAGGSLRLICAASGRIFGYYTMGRYRQAPGKERELVADNNRDGSTYADSVKGRFTISRDNAKNSVYIQMNSLKPEDTAVYYCIAQYDSAYGLGFFIGYFSQYDYWGQGTQVTVSS	low polyreactivity
QVQLVESGGGLVQAGGSLRLICAASGRIFHGNAMGWYRQAPGKERELVAAISRRGGSTYYADSVKGRFTISRDNAKNTVYLQMNSLKPEDTAVYYCASVYYNGIRYGYWGQGTQVTVSS	high polyreactivity
QVQLVESGGGLVQAGGSLRLICAASGRIFKINAMGWYRQAPGKERELVAGISGSGSDTYYADSVKGSFTISRDNAKYTVYLQMNSLKPEDTAVYYCAAVAYDWALFYYWGQGTQVTVSS	low polyreactivity
QVQLVESGGGLVQAGGSLRLICAASGRIFLNSTMGSYRQEPGKERELVADITWRGGSTYYADSVKGRFTISRDNAKNTVYLQMNSLKPEDTAVYYWNAVSVSSKRSDYWVQGTQVTVSS	low polyreactivity
QVQLVESGGGLVQAGGSLRLICAASGRIFRYNALGWYRQAPGKERELVATISGTSRTKYADSVKGRFTISRDNAKHTVYLQMNSLKPEDTAVYYCAARRYGWGRAQSSASYDHWGQGTQVTVSS	high polyreactivity
QVQLVESGGGLVQAGGSLRLICAASGRIFRYYAMGWYRQAPGKERELVAAISYSGGSTYYADSVKGRFTISRDNEKNTVYLQMNILKPEDTAVYYCNAGSWKSYYSTVRYLTYSMYYWGQGTQVTVSS	high polyreactivity
QVQLVESGGGLVQAGGSLRLICAASGRIFSGNTMGWYRQAPGKERELVAAISKSGGRTYYADSVKGRFTISRDNAKYTFYLQMNSLKPEDTAVYYCNADYRSHYLYDYWGQGTQVTVSS	low polyreactivity
QVQLVESGGGLVQAGGSLRLICAASGRIFWQYAMGWYRQAPGKERELVAAISRSGGSTYYADSVKGRFTISRDNAKNTVYLQMNSLKPEDTAVYYCAARKASGVPGSAGRPEYYYWGQGTQVTVSS	high polyreactivity
QVQLVESGGGLVQAGGSLRLICAASGRIFWSNAMRWSRQAPGKVSELVAAISSGGSTYYADSVKGRFTISRDNAKNTVYLQMNRLKPEDTAVYYCATRGIQRGFSRWGGLDYWGQGTLVTVSS	low polyreactivity
QVQLVESGGGLVQAGGSLRLICAASGRIFYFYAMGWYRQAPGKERELVAAISTSGGSTYYADSVKGRFTISRDNAKNTVYLQMNSLKPEDTAVYYCAARFRYYGSEYDYWGQGTQVTVSS	low polyreactivity
QVQLVESGGGLVQAGGSLRLICAASGRIFYGYAMGWYRQAPGKEREFVAAITVSAGSTYYADSVKGRFTISRDYAKNTVYLQMNSLKPEDTAVYYCAAKRYVYPSYRFDYWGQGTQVTVSS	low polyreactivity
QVQLVESGGGLVQAGGSLRLICAASGRIFYNNAMGWYRQARGKERELVAGISRSSGRTYYADSVTGRFTISRDNAKNTGYLQMNSLKPVDTAVYYCAADWHYRSTARRMGYWGQGTQVTVSS	high polyreactivity
QVQLVESGGGLVQAGGSLRLICAASGRIFYYYTMGWYRQAPGKERELVDTIRSGGSTYYADSVKGRFTISRDNAKNTVYLQMNSLKPEDTAVYYCAAAYRTGRGYGFDYWGQGTQVTVSS	high polyreactivity
QVQLVESGGGLVQAGGSLRLICAASGRISKRYTMGWYRQAPGKERELVAAINSSTSKSYADSVKGRFTISRDNAKNTVYLQMNSLKPEDTAVYYCNARYNYSYDYNYWGQGTQVTVSS	low polyreactivity
QVQLVESGGGLVQAGGSLRLICAASGRPSVLMLMGLYRQEPGKERELVAAIDDSTDTTYYADSVKGRFTISRDNAKNTVYLQMNSLKPDVTAGYYCADEEGYVKFSGSWSYGYDYWGQGTQVTVSS	high polyreactivity
QVQLVESGGGLVQAGGSLRLICAASGRSFIGNAMGWYSQAPGKDREFDAAISRRGGSTYYADSVKGRFTISRDNEKNTVYLQMNSLKPEDTAVYYCAAGQTTTGILTYYYWGQGTQVTGSS	high polyreactivity
QVQLVESGGGLVQAGGSLRLICAASGRSFQYYVMGWYSQAPGKEWELVAAMNRRGTSTYYADSVKGRFTISRDNAKNTVYLQMNSLKPEDTAVYYCAAVDRDYARTTTYDYWGQGTQVSVSS	high polyreactivity
QVQLVESGGGLVQAGGSLRLICAASGRSFTSNAMGWYRQAAGKEWELVAAINFRGDSTYYADSVKGRFTISRDNAKNTVYLQMNSLKREDTAVYYCAAVGGRSSYRLDYWGQGTQVTVSS	low polyreactivity
QVQLVESGGGLVQAGGSLRLICAASGRTCWKYVMGWYRQAPGKERDLVAVISSDGITNYADSVKGRFTISRDNAKNTVYLQMNSLKPEDTAVYYCNAGPDDYVGYWGKYDYWGQGTQVTVSS	low polyreactivity
QVQLVESGGGLVQAGGSLRLICAASGRTFAIYAMGWYRQAPGKEREIVAAISWSGGDTYYADSVKGRFTISRDNEKNTVYLQMNSLKPEDTAVYYCAADRYDYSYFGYGAQDYDYWGQGTQLTVSS	low polyreactivity
QVQLVESGGGLVQAGGSLRLICAASGRTFAYYAMGWYRQAPGKERELVATITWNGGSTYYADSVKGRFTISRDNAKNTVYLQMNSLKPEDTAVYYCAKSVGWWSPPLGDYWGQGTQVTVSS	low polyreactivity
QVQLVESGGGLVQAGGSLRLICAASGRTFDNYAMGWYRQAPGKEREFVAAITTGVGSTYADSVKGRFTISRDNAKNTVYLQMNSLKPEDTAVYYCAGDSYWLFDAYDYWGQGTKVTVSS	low polyreactivity
QVQLVESGGGLVQAGGSLRLICAASGRTFGGNAMGWYRQAPGKEWDLVAAISYSDGSKYYADSVKGRFTISRDNANNSVYLQMNSLKPEDTAVYYCAAARHVRTDYLDYDYWGQGTQVTVSS	low polyreactivity

Reference: the nanobody polyreactivity screen of Harvey et al. (2022)
